The data set in a line: soluble on expression in E. coli; label from the status in PepcDB or PDB records.
For the sequence “MTVPSIVLNDGNSIPQLGYGVYKVPPADTQRAVEEALEVGYRHIDTAAIYGNEEGVGAAIAASGIARDDLFITTKLWNDRHDGDEPAAAIAESLAKLALDQVDLYLVHWPTPAADNYVHAWEKMIELRAAGLTRSIGVSNHLVPHLERIVAATGVVPAVNQIELHPAYQQREITDWAAAHDVKIESWGPLGQGKYDLFGAEPVTAAAAAHGKTPAQAVLRWHLQKGFVVFPGSVRREHLEENLDVFDFDLTDTEIAAIDAMDPGDGSGRVSGHPDEVD”, the “soluble on expression in E. coli” value is recorded as “soluble”.

As to “MKQGTVKWFNAEKGFGFIEVEGENDVFVHFSAINQDGYKSLEEGQAVEFEVVEGDRGPQAANVVKL”, the “soluble on expression in E. coli” value is “not soluble”.

Regarding “MGSDKIHHHHHHMNYLVISPFYPENFQPFTIELAKKEGVTVLGIGQEPYDQLPEELRNALTEYFRVEDLENIDEVKRAAAFLIYKHGPIDRVESHNEYWLENDAALREQFNIFGAKPKHLKKTKFKSEMKKYFKKAGVPVVPGVVVKSERDFGRALKNVGFPMIAKPDNGVGASGTFKIENKEDFDRFVETWDGATIYFLEKFVNSSIITTYDGLLDHEGNVVFETGLTYVHTPLELMLSRKDNAYFIEKELDPQLVKYGRAIIKAFGMRERFFHIEFFKDGDDYIAIEYNNRMAGGFTVEAYNYAHSIDLFRDYANVATGGTVEERRFEPQYCLVATRRDTTEYVHSADDIHQKFAGKIKTVKRMPDAFAELQGNDAYLLVTESKKELDEMIAYIGLTK”, the “soluble on expression in E. coli” value is reported as “not soluble”.

Regarding “SLLTALTADNQELFSLIDCSIDELTQIRSEQAFVCPMCHQSVILKAGPIKIPHFAHRKKNSCWYEAEAETEEHLRLKQLFAEKCLREKLSFQVEAYLPTLKQRPDLLIGKIAIEIQCSPLPIKRLVERTETYQTHGYQVVWILGERLVPKDKLTQLTKQFLYFSESLGFYLWSANKKQERIELLCHIEESQCQQFYRRKQSWDFYEKQLLEIFRLPTANLNLLPDRRHTGQLMHDYYQKLTQQLGYRNAQLLRTQSFLYTKGCHLLQLPPWFYYPGLKLIPSSEEDIHLKMLVWEALKTEEERLVTKQELWRILEAIFLEEGNFVWQPLPNIGLKKLFKIVGNNLLRWLQECYVLIKVNNKYLITSIFLREDPEKLIHWLKKVKKQHFFSHTC”, the “soluble on expression in E. coli” value is “soluble”.

“MLKHDLDYLELLSESFPTATEAATEIINLEAILNLPKGTEHFLADIHGEYEAFIHVLKNASGSIRRKVDEVFGGQLRQNQKRELCTLIYYPREKLELVKQSDERMEDWYMVTLNQLIKVCQKAAEKYTRSKVRKTLPPKYSYIIQELLHEDGVNPNKSAYISSIFSSIISTGCADDFIIAISETIQRLVIDHLHVVGDVFDRGPGAHIIMDTLMKYHHFDIQWGNHDMLWMGAAVGNASCMANVVRIALRYANLDTLESGYGINLLPLARFAMDTYADDPCTVFKPKLAQADQTYDDKSVYLISQMHKAISIIQFKLEHQIIARHPEYKMDNRDLFHLVNFTDGTIKLSSGVYPMLDMNFPTVDPADPYALTEQEQNIVDRLMGCFMRSEKLQNHLKCLYRHGSMYLTYNMNLLYHASIPLNKDKSLKKVRVGDKTYAGRELLDKVEEMIRTAYVAPEKSDQRLAAVDYMWYLWCGPDSPLFDKAMMTTFERYFIEDKATHHEEKGYYYVYRQEKAVCEMILKEFGLEGPDTHIINGHVPVKAKKGELPIGAEGKLMLIDGGFSKAYQSSTGIAGYTLIFNSQGLHLVQHEPFSSTRKAIEEMEDIKSITVVREVTSHRMLVKDTDNGHLLSKQVENLKKLLQAYSYGLIKERKK”: the “soluble on expression in E. coli” value is recorded as “not soluble”.

As for “KTNTEQFCSDCHMNDVVPEYRASAHYSNRSGVKAVCADCHVPHEFAPKMLRKLQASTEVYAHLTGKVDNKEKFEAHRLAMAEREWARMKANNSQECRNCHNFEDMDFTQQKTVAQQMHSRAETENKTCIDCHKGIAHNLPHMEKVQKSFIPDDMIKKTEKATEIK”, the “soluble on expression in E. coli” value is “not soluble”.

On to “MGHHHHHHSHMYFVGCGYNAFPVGSEYADFPHMDDKQKDREIRKFRYIIHAEQNALTFRCQEIKPEERSMIFVTKCPCDECVPLIKGAGIKQIYAGDVDVGKKKADISYMRFGELEGVSKFTWQLNPSGAYGLEQNEPERRERDLSHRRKSSTRTRSCASESTKKACLHCRGTSRTFHCTSKIQPCSFRK”, for which the “soluble on expression in E. coli” value was “not soluble”.

Take “MIIPALDLIDGTVVRLHQGDYGKQRDYGNDPLPRLQDYAAQGAEVLHLVDLTGAKDPAKRQIPLIKTLVAGVNVPVQVGGGVRSEEDVAALLEAGVARVVVGSTAVKSQDMVKGWFERFGADALVLALDVRIDEQGNKQVAVSGWQENSGVSLEQLVETYLPVGLKHVLCTDISRDGTLAGSNVSLYEEVCARYPQVAFQSSGGIGDIDDVAALRGTGVRGVIVGRALLEGKFTVKEAIACWQNA”: the “soluble on expression in E. coli” value is on record as “soluble”.

For “MAHHHHHHMDLIQWPLPYQDELLNFYIFNDSKFVGGQNRWNLFKKKVMHHNIHVISNCYCQISLLRLSQLLNASVDDSESFLSELVSNKILNAKIDRLHGIIKFGQKKTPEVLLNNWSSQIHQILNLLEESSHLIQKERMLHEAKLKRMQLESKNMSL”, the “soluble on expression in E. coli” value was “not soluble”.

As to “MSQVQSGILPEHCRAAIWIEANVKGEVDALRAASKTFADKLATFEAKFPDAHLGAVVAFGNNTWRALSGGVGAEELKDFPGYGKGLAPTTQFDVLIHILSLRHDVNFSVAQAAMEAFGDCIEVKEEIHGFRWVEERDLSGFVDGTENPAGEETRREVAVIKDGVDAGGSYVFVQRWEHNLKQLNRMSVHDQEMVIGRTKEANEEIDGDERPETSHLTRVDLKEDGKGLKIVRQSLPYGTASGTHGLYFCAYCARLHNIEQQLLSMFGDTDGKRDAMLRFTKPVTGGYYFAPSLDKLMAL”, the “soluble on expression in E. coli” value was “soluble”.

Regarding “MGSDKIHHHHHHMTVSQVSTGTGLGTRHVAFDWGGVFTVGTFDGRSTQNVAERSGVPVEKVRESYFRHIRQLEVGAWTLPQFWETVQQETGMTLPYADFEALYLGSIHDNAPMYTTLAALPRSVRVGLLSNNYPVVSEHLGRDPRFARFDALVFSNEIGHKKPAPEAFAALEQKMGLPAAQVAFVDDVQENIDAAGAFGFHGILYHHDAHERFEQELKEWLRG”, the “soluble on expression in E. coli” value is “not soluble”.

“MSLDIQIQYSTDWKEEFLKRLEDGGPWSNWEMGKLAYEAANYQVIPEFHGLQAPKHLPQLQPFPHQMEVAQTVIEQMNGKAILADEVGLGKTIEAGLILKEYMIRGLAKKVLILVPASLVSQWAYELSSKFYIPAIPQKKAYVWEQYDVVVASIDTAKRQPHRDIVLNQHYDLVIIDEAHKLKNPKTKNYAFIKSLKRKYCLLLTATPVQNKLEEIFNLVSLLKPGHLGDLESFEKEYRANKRAPKNEDKLKELVNKVMVRNRREETGIEWTKRIVQTVPITFSEGERAFYHAITKLKQQPDVMTNSFSLLTLQREICSSREAAFMTLKNMITKLEQEGRTSPILESLIEQVGTIEGHAKAEKALELIQQINDKVIIFTEYRATQLYLQWYLKQHGISSVPFRGGFKRGKKDWMRQLFENRAQVLIATEAGGEGINLQFCHHIINYDLPWNPMRIEQRIGRIHRLGQTEDVRIYNFAVKDTIEEQILTLLYEKIQLFERVVGELDDILTKMNVGSIEEHIRDIFVHSDSEGEMKIKLDHLSAIMNDVANEKEEDHATGATASVSDALLEGHHHHHH”: the “soluble on expression in E. coli” value is recorded as “not soluble”.

Take “MGSDKIHHHHHHMYAQTPQDMTRALFEAQLVELQRARAIRKKYHTDVVLGLTSAIRVLLIDMPSLYDKIKLLDYLHIVVEEPRFRSSHEGVKFHAYTATLPPDRTPDRTLQRDRTSRQTAATPETPHTQTARSHKKVTRDTTPFAAYENSKYAPIFVEPHIFTVHPLLLWVQMAAYLRLEELVVLGDAMMRRSFYRVHVSPADFATLLNELPTTFPHRKKCDKAVKLLAENTDSCMETRLRFRMLRAGYGPFVINYRLPLNTADKKQAFLDIAIPNLKIAIEYSGKFHAQNWESDEARRTALSSAGWQILSVNAETLSNSGKFKDFLIQLSMTIARQQTILQRNQQM”: the “soluble on expression in E. coli” value is on record as “not soluble”.

“MESIVDKQAVKHFLLQLQDKICQQLEATDGQAQFIEDAWQREPGEKLGGGGRTRVMREGAVFEQGGVNFSHVFGEQMPASATAHRPELAGRRFEAMGVSLVMHPKNPYVPTSHANVRFFIAEKEGEAPIWWFGGGFDLTPFYPFVEDGQHWHQTAKNICAPFGSEIYNEHKAWCDRYFYLPHRNETRGIGGLFFDDLNEWSFEQCFAYMQAVGEGYTQAYVPIVEKRKNTPFTERERQFQLYRRGRYVEFNLVLDRGTLFGLQTGGRTESILMSMPPLARWEYAYQPQAGTPEAKLSEFLVPREW”: the “soluble on expression in E. coli” value is given as “not soluble”.

On to “MRQDDLKLLGKIVTTHGIRGQLKVASFSGEFDTILSLETVVLKGKDGRMETFPVARATVHHDRVLLSLTPFTNINEVLHLISAVSYAHRDQFPPLEEGEYYWCDLIGLQVVTAAGTVIGRLDSILPTESHDVYVVRGADREYLIPAVEDVVVQVDLEAGTMTVSPPEGLLDLLEHHHHHH”, for which the “soluble on expression in E. coli” value is listed as “soluble”.

In the case of “MSLDYEIFNPYEGLIFDMDGTLIDTMPVHAQAWTMVGKKFGYEFDFQIMYNFGGATVRTIAGEMMKAANMPLDRIEDVLAAKRELSYQLIPTQSKLLPTFEIVKSFHQKKPIALGSGSHRKIIDMLMDKLAIAPYFNAIVSADDVKEHKPHPETFLRCAELIQANPSRCIVFEDADLGVQAGLSAGMDVFDVRTREIISPREGHHHHHH”, the “soluble on expression in E. coli” value was “soluble”.

On to “MPVAHVALPVPLPRTFDYLLPEGMTVKAGCRVRVPFGKQQERIGIVVSVSDASELPLNELKAVVEVLDSEPVFTHSVWRLLLWAADYYHHPIGDVLFHALPILLRQGRPAANAPMWYWFATEQGQAVDLNSLKRSPKQQQALAALRQGKIWRDQVATLEFNDAALQALRKKGLCDLASETPEFSDWRTNYAVSGERLRLNTEQATAVGAIHSAADTFSAWLLAGVTGSGKTEVYLSVLENVLAQGKQALVMVPEIGLTPQTIARFRERFNAPVEVLHSGLNDSERLSAWLKAKNGEAAIVIGTRSALFTPFKNLGVIVIDEEHDSSYKQQEGWRYHARDLAVYRAHSEQIPIILGSATPALETLCNVQQKKYRLLRLTRRAGNARPAIQHVLDLKGQKVQAGLAPALITRMRQHLQADNQVILFLNRRGFAPALLCHDCGWIAECPRCDHYYTLHQAQHHLRCHHCDSQRPVPRQCPSCGSTHLVPVGLGTEQLEQTLAPLFPGVPISRIDRDTTSRKGALEQQLAEVHRGGARILIGTQMLAKGHHFPDVTLVALLDVDGALFSADFRSAERFAQLYTQVAGRAGRAGKQGEVVLQTHHPEHPLLQTLLYKGYDAFAEQALAERRMMQLPPWTSHVIVRAEDHNNQHAPLFLQQLRNLILSSPLADEKLWVLGPVPALAPKRGGRWRWQILLQHPSRVRLQHIINGTLALINTIPDSRKVKWVLDVDPIEG”, for which the “soluble on expression in E. coli” value is listed as “soluble”.

Consider “MMNASTKFSDNYDVKEELGKGAFSVVRRCVHKTTGLEFAAKIINTKKLSARDFQKLEREARICRKLQHPNIVRLHDSIQEESFHYLVFDLVTGGELFEDIVAREFYSEADASHCIQQILESIAYCHSNGIVHRDLKPENLLLASKAKGAAVKLADFGLAIEVNDSEAWHGFAGTPGYLSPEVLKKDPYSKPVDIWACGVILYILLVGYPPFWDEDQHRLYAQIKAGAYDYPSPEWDTVTPEAKSLIDSMLTVNPKKRITADQALKVPWICNRERVASAIHRQDTVDCLKKFNARRKLKAAISAVKMVTRMSGVLRTSDSTGSVASNGSTTHDASQVAGTSSQPTSPAAEGAILTTMIATRNLSNLGRNLLNKKEQGPPSTIKESSESSQTIDDNDSEKGGGQLKHENTVVRADGATGIVSSSNSSTASKSSSTNLSAQKQDIVRVTQTLLDAISCKDFETYTRLCDTSMTCFEPEALGNLIEGIEFHRFYFDGNRKNQVHTTMLNPNVHIIGEDAACVAYVKLTQFLDRNGEAHTRQSQESRVWSKKQGRWVCVHVHRSTQPSTNTTVSEF”, for which the “soluble on expression in E. coli” value is recorded as “not soluble”.

(Values after the DeepSol protein solubility set.)
